Our source for the percent reduction in ToxR interaction relative to wild-type TcpP-HSV, percent reduction in TcpP interaction relative to wild-type ToxR and percent defect in TcpP interaction relative to wild-type ToxR values is article PMC6733452.

Holding throughout (assay): cross-linking + ELISA
One assay has as its target TcpP-K102E (V. cholerae) (UniProt P29485).
For another assay, the target named is TcpP-N99D (V. cholerae) (UniProt P29485).
Assay [1] concerns the target TcpP-HSV (wild-type, from pEK41) (V. cholerae) (UniProt P29485).

Turning to “ToxR (wild-type, expressed from the chromosomal toxR locus) (from UniProt P15795 1-294) (natural protein)”, the percent reduction in ToxR interaction relative to wild-type TcpP-HSV with TcpP-K102E (V. cholerae) and with TcpP-N99D (V. cholerae) was 50% in each case.

Take “ToxR-L107A (chromosomally expressed) (from UniProt P15795 1-294) (natural protein)”: the percent reduction in TcpP interaction relative to wild-type ToxR in assay [1] stood at 70%.

As for “ToxR-T91A (chromosomally expressed) (from UniProt P15795 1-294) (natural protein)”, the percent reduction in TcpP interaction relative to wild-type ToxR in assay [1] amounted to 45%.

Regarding “ToxR-V97A (chromosomally expressed) (from UniProt P15795 1-294) (natural protein)”, in assay [1], the percent defect in TcpP interaction relative to wild-type ToxR is greater than 60%.

In the case of “ToxR-Y96A (chromosomally expressed) (from UniProt P15795 1-294) (natural protein)”, in assay [1], the percent reduction in TcpP interaction relative to wild-type ToxR was 40%.
